# Laboratory results as given in patent US20040005554A1 (APPLIED RESEARCH SYSTEMS ARS HOLDING N V, published 2004).
# B1: FLAG-BRP fusion protein (N-terminal FLAG tag on predicted mature human BRP, secreted through the mouse preprotrypsin signal) (other)
# chain: DYKDDDDKASSGNLRTFVGCAVREFTFLAKKPGCRGLRITTDACWGRCETWEKPILEPPYIEAHHRVCTYNETKQVTVKLPNCAPGVDPFYTYPVAIRCDCGACSTATTECETI
# notes: The BRP part comes from BRP-NTAP (BRP without the secretory signal peptide); also called FLAG-BRP in pCEP4
# Molecular target: the molecule itself
# Assay: SDS-PAGE (silver stain) and anti-FLAG western blot of immunoaffinity-purified protein, with and without reduction
protein,measurement,value
B1,binding result,binds
